Results: the supplement of paper PMC5998384

Experiments:
HeLa Kyoto [1] = test: solubility change mitosis vs G1/S (difference of NP-40 vs SDS log2 ratios) (log2 ratio difference); higher = more soluble in mitosis
HeLa Kyoto [2] = test: melting temperature (median over replicates), in situ; higher = more thermally stable
HeLa Kyoto [3] = test: solubility in G1/S (NP-40 vs SDS abundance) (log2 ratio); higher = more soluble; conditions: cell cycle stage: G1/S
HeLa Kyoto [4] = test: thermal stability score vs G1/S (z-score of summed log2 fold changes over temperatures); higher = more thermally stable than in G1/S
[5] = cell cycle stage: early G1 (4.5 h after nocodazole release)
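Wherever melting temperature (median over replicates), in situ is given: HeLa Kyoto cells synchronized by double thymidine or nocodazole block, proteins quantified by TMT10plex mass spectrometry, three independent biological replicates.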
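Wherever solubility change mitosis vs G1/S (difference of NP-40 vs SDS log2 ratios) is given: synchronized HeLa Kyoto cells (double thymidine block for G1/S, nocodazole release for mitosis), protein amounts in NP-40 versus SDS lysates quantified by mass spectrometry, three biological replicates.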
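Wherever solubility in G1/S (NP-40 vs SDS abundance) is given: HeLa Kyoto cells arrested at G1/S by double thymidine block, proteins quantified by TMT10plex mass spectrometry in mild NP-40 versus SDS extracts, three biological replicates.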
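Wherever thermal stability score vs G1/S (z-score of summed log2 fold changes over temperatures) is given: synchronized HeLa Kyoto cells, proteins quantified by TMT10plex mass spectrometry, three biological replicates, mitosis taken 0.5 h after nocodazole release, G1/S directly after double thymidine block.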

| Sequence | solubility change mitosis (log2) (HeLa Kyoto [1]) | melting temperature (HeLa Kyoto [2]; cell cycle stage: G1/S) | melting temperature (HeLa Kyoto [2]; cell cycle stage: mitosis) | solubility in G1/S (log2) (HeLa Kyoto [3]) | thermal stability score (HeLa Kyoto [4]; [5]) | thermal stability score (HeLa Kyoto [4]; cell cycle stage: mitosis) |
| --- | --- | --- | --- | --- | --- | --- |
| MAPPSTREPRVLSATSATKSDGEMVLPGFPDADSFVKFALGSVVAVTKASGGLPQFGDEYDFYRSFPGFQAFCETQGDRLLQCMSRVMQYHGCRSNIKDRSKVTELEDKFDLLVDANDVILERVGILLDEASGVNKNQQPVLPAGLQVPKTVVSSWNRKAAEYGKKAKSETFRLLHAKNIIRPQLKFREKIDNSNTPFLPKIFIKPNAQKPLPQALSKERRERPQDRPEDLDVPPALADFIHQQRTQQVEQDMFAHPYQYELNHFTPADAVLQKPQPQLYRPIEETPCHFISSLDELVELNEKLLNCQEFAVDLEHHSYRSFLGLTCLMQISTRTEDFIIDTLELRSDMYILNESLTDPAIVKVFHGADSDIEWLQKDFGLYVVNMFDTHQAARLLNLGRHSLDHLLKLYCNVDSNKQYQLADWRIRPLPEEMLSYARDDTHYLLYIYDKMRLEMWERGNGQPVQLQVVWQRSRDICLKKFIKPIFTDESYLELYRKQKKHLNTQQLTAFQLLFAWRDKTARREDESYGYVLPNHMMLKIAEELPKEPQGIIACCNPVPPLVRQQINEMHLLIQQAREMPLLKSEVAAGVKKSGPLPSAERLENVLFGPHDCSHAPPDGYPIIPTSGSVPVQKQASLFPDEKEDNLLGTTCLIATAVITLFNEPSAEDSKKGPLTVAQKKAQNIMESFENPFRMFLPSLGHRAPVSQAAKFDPSTKIYEISNRWKLAQVQVQKDSKEAVKKKAAEQTAAREQAKEACKAAAEQAISVRQQVVLENAAKKRERATSDPRTTEQKQEKKRLKISKKPKDPEPPEKEFTPYDYSQSDFKAFAGNSKSKVSSQFDPNKQTPSGKKCIAAKKIKQSVGNKSMSFPTGKSDRGFRYNWPQR [EXOSC10] | 0.289 | 46.6 °C | 48.7 °C | -0.517 | 4.13 | 7.46 |
| MEGSGEQPGPQPQHPGDHRIRDGDFVVLKREDVFKAVQVQRRKKVTFEKQWFYLDNVIGHSYGTAFEVTSGGSLQPKKKREEPTAETKEAGTDNRNIVDDGKSQKLTQDDIKALKDKGIKGEEIVQQLIENSTTFRDKTEFAQDKYIKKKKKKYEAIITVVKPSTRILSIMYYAREPGKINHMRYDTLAQMLTLGNIRAGNKMIVMETCAGLVLGAMMERMGGFGSIIQLYPGGGPVRAATACFGFPKSFLSGLYEFPLNKVDSLLHGTFSAKMLSSEPKDSALVEESNGTLEEKQASEQENEDSMAEAPESNHPEDQETMETISQDPEHKGPKERGSKKDYIQEKQRRQEEQRKRHLEAAALLSERNADGLIVASRFHPTPLLLSLLDFVAPSRPFVVYCQYKEPLLECYTKLRERGGVINLRLSETWLRNYQVLPDRSHPKLLMSGGGGYLLSGFTVAMDNLKADTSLKSNASTLESHETEEPAAKKRKCPESDS [TRMT6] | 0.019 | 54.9 °C | 56.2 °C | 0.0845 | 2.23 | 0.0663 |
| MQMVPSLPPASECAGEEKRVGTRTVFVGNHPVSETEAYIAQRFCDNRIVSSKYTLWNFLPKNLFEQFRRIANFYFLIIFLVQVTVDTPTSPVTSGLPLFFVITVTAIKQGYEDCLRHRADNEVNKSTVYIIENAKRVRKESEKIKVGDVVEVQADETFPCDLILLSSCTTDGTCYVTTASLDGESNCKTHYAVRDTIALCTAESIDTLRAAIECEQPQPDLYKFVGRINIYSNSLEAVARSLGPENLLLKGATLKNTEKIYGVAVYTGMETKMALNYQGKSQKRSAVEKSINAFLIVYLFILLTKAAVCTTLKYVWQSTPYNDEPWYNQKTQKERETLKVLKMFTDFLSFMVLFNFIIPVSMYVTVEMQKFLGSFFISWDKDFYDEEINEGALVNTSDLNEELGQVDYVFTDKTGTLTENSMEFIECCIDGHKYKGVTQEVDGLSQTDGTLTYFDKVDKNREELFLRALCLCHTVEIKTNDAVDGATESAELTYISSSPDEIALVKGAKRYGFTFLGNRNGYMRVENQRKEIEEYELLHTLNFDAVRRRMSVIVKTQEGDILLFCKGADSAVFPRVQNHEIELTKVHVERNAMDGYRTLCVAFKEIAPDDYERINRQLIEAKMALQDREEKMEKVFDDIETNMNLIGATAVEDKLQDQAAETIEALHAAGLKVWVLTGDKMETAKSTCYACRLFQTNTELLELTTKTIEESERKEDRLHELLIEYRKKLLHEFPKSTRSFKKAWTEHQEYGLIIDGSTLSLILNSSQDSSSNNYKSIFLQICMKCTAVLCCRMAPLQKAQIVRMVKNLKGSPITLSIGDGANDVSMILESHVGIGIKGKEGRQAARNSDYSVPKFKHLKKLLLAHGHLYYVRIAHLVQYFFYKNLCFILPQFLYQFFCGFSQQPLYDAAYLTMYNICFTSLPILAYSLLEQHINIDTLTSDPRLYMKISGNAMLQLGPFLYWTFLAAFEGTVFFFGTYFLFQTASLEENGKVYGNWTFGTIVFTVLVFTVTLKLALDTRFWTWINHFVIWGSLAFYVFFSFFWGGIIWPFLKQQRMYFVFAQMLSSVSTWLAIILLIFISLFPEILLIVLKNVRRRSARRNLSCRRASDSLSARPSVRPLLLRTFSDESNVL [ATP11C] | -0.202 | 55.2 °C | 55 °C | -0.156 | -0.694 | -1.66 |
| MADPEVCCFITKILCAHGGRMALDALLQEIALSEPQLCEVLQVAGPDRFVVLETGGEAGITRSVVATTRARVCRRKYCQRPCDNLHLCKLNLLGRCNYSQSERNLCKYSHEVLSEENFKVLKNHELSGLNKEELAVLLLQSDPFFMPEICKSYKGEGRQQICNQQPPCSRLHICDHFTRGNCRFPNCLRSHNLMDRKVLAIMREHGLNPDVVQNIQDICNSKHMQKNPPGPRAPSSHRRNMAYRARSKSRDRFFQGSQEFLASASASAERSCTPSPDQISHRASLEDAPVDDLTRKFTYLGSQDRARPPSGSSKATDLGGTSQAGTSQRFLENGSQEDLLHGNPGSTYLASNSTSAPNWKSLTSWTNDQGARRKTVFSPTLPAARSSLGSLQTPEAVTTRKGTGLLSSDYRIINGKSGTQDIQPGPLFNNNADGVATDITSTRSLNYKSTSSGHREISSPRIQDAGPASRDVQATGRIADDADPRVALVNDSLSDVTSTTSSRVDDHDSEEICLDHLCKGCPLNGSCSKVHFHLPYRWQMLIGKTWTDFEHMETIEKGYCNPGIHLCSVGSYTINFRVMSCDSFPIRRLSTPSSVTKPANSVFTTKWIWYWKNESGTWIQYGEEKDKRKNSNVDSSYLESLYQSCPRGVVPFQAGSRNYELSFQGMIQTNIASKTQKDVIRRPTFVPQWYVQQMKRGPDHQPAKTSSVSLTATFRPQEDFCFLSSKKYKLSEIHHLHPEYVRVSEHFKASMKNFKIEKIKKIENSELLDKFTWKKSQMKEEGKLLFYATSRAYVESICSNNFDSFLHETHENKYGKGIYFAKDAIYSHKNCPYDAKNVVMFVAQVLVGKFTEGNITYTSPPPQFDSCVDTRSNPSVFVIFQKDQVYPQYVIEYTEDKACVIS [ZC3HAV1] | 0.0381 | 48.1 °C | 48.8 °C | -0.202 | 1.07 | 1.97 |
| MGAYLSQPNTVKCSGDGVGAPRLPLPYGFSAMQGWRVSMEDAHNCIPELDSETAMFSVYDGHGGEEVALYCAKYLPDIIKDQKAYKEGKLQKALEDAFLAIDAKLTTEEVIKELAQIAGRPTEDEDEKEKVADEDDVDNEEAALLHEEATMTIEELLTRYGQNCHKGPPHSKSGGGTGEEPGSQGLNGEAGPEDSTRETPSQENGPTAKAYTGFSSNSERGTEAGQVGEPGIPTGEAGPSCSSASDKLPRVAKSKFFEDSEDESDEAEEEEEDSEECSEEEDGYSSEEAENEEDEDDTEEAEEDDEEEEEEMMVPGMEGKEEPGSDSGTTAVVALIRGKQLIVANAGDSRCVVSEAGKALDMSYDHKPEDEVELARIKNAGGKVTMDGRVNGGLNLSRAIGDHFYKRNKNLPPEEQMISALPDIKVLTLTDDHEFMVIACDGIWNVMSSQEVVDFIQSKISQRDENGELRLLSSIVEELLDQCLAPDTSGDGTGCDNMTCIIICFKPRNTAELQPESGKRKLEEVLSTEGAEENGNSDKKKKAKRD [PPM1G] | -0.0729 | 48.4 °C | 49.4 °C | 0.104 | 2.65 | 8.41 |
| MYATDSRGHSPAFLQPQNGNSRHPSGYVPGKVVPLRPPPPPKSQASAKFTSIRREDRATFAFSPEEQQAQRESQKQKRHKNTFICFAITSFSFFIALAIILGISSKYAPDENCPDQNPRLRNWDPGQDSAKQVVIKEGDMLRLTSDATVHSIVIQDGGLLVFGDNKDGSRNITLRTHYILIQDGGALHIGAEKCRYKSKATITLYGKSDEGESMPTFGKKFIGVEAGGTLELHGARKASWTLLARTLNSSGLPFGSYTFEKDFSRGLNVRVIDQDTAKILESERFDTHEYRNESRRLQEFLRFQDPGRIVAIAVGDSAAKSLLQGTIQMIQERLGSELIQGLGYRQAWALVGVIDGGSTSCNESVRNYENHSSGGKALAQREFYTVDGQKFSVTAYSEWIEGVSLSGFRVEVVDGVKLNLLDDVSSWKPGDQIVVASTDYSMYQAEEFTLLPCSECSHFQVKVKETPQFLHMGEIIDGVDMRAEVGILTRNIVIQGEVEDSCYAENQCQFFDYDTFGGHIMIMKNFTSVHLSYVELKHMGQQQMGRYPVHFHLCGDVDYKGGYRHATFVDGLSIHHSFSRCITVHGTNGLLIKDTIGFDTLGHCFFLEDGIEQRNTLFHNLGLLTKPGTLLPTDRNNSMCTTMRDKVFGNYIPVPATDCMAVSTFWIAHPNNNLINNAAAGSQDAGIWYLFHKEPTGESSGLQLLAKPELTPLGIFYNNRVHSNFKAGLFIDKGVKTTNSSAADPREYLCLDNSARFRPHQDANPEKPRVAALIDRLIAFKNNDNGAWVRGGDIIVQNSAFADNGIGLTFASDGSFPSDEGSSQEVSESLFVGESRNYGFQGGQNKYVGTGGIDQKPRTLPRNRTFPIRGFQIYDGPIHLTRSTFKKYVPTPDRYSSAIGFLMKNSWQITPRNNISLVKFGPHVSLNVFFGKPGPWFEDCEMDGDKNSIFHDIDGSVTGYKDAYVGRMDNYLIRHPSCVNVSKWNAVICSGTYAQVYVQTWSTQNLSMTITRDEYPSNPMVLRGINQKAAFPQYQPVVMLEKGYTIHWNGPAPRTTFLYLVNFNKNDWIRVGLCYPSNTSFQVTFGYLQRQNGSLSKIEEYEPVHSLEELQRKQSERKFYFDSSTGLLFLYLKAKSHRHGHSYCSSQGCERVKIQAATDSKDISNCMAKAYPQYYRKPSVVKRMPAMLTGLCQGCGTRQVVFTSDPHKSYLPVQFQSPDKAETQRGDPSVISVNGTDFTFRSAGVLLLVVDPCSVPFRLTEKTVFPLADVSRIEEYLKTGIPPRSIVLLSTRGEIKQLNISHLLVPLGLAKPAHLYDKGSTIFLGFSGNFKPSWTKLFTSPAGQGLGVLEQFIPLQLDEYGCPRATTVRRRDLELLKQASKAH [TMEM2] | -0.018 | 55.3 °C | 55.5 °C | 0.114 | -1.5 | -0.419 |
